Assay results: patent US9453838B2, “Methods for making microarrays and their uses” (Asociación Centro De Investigación Cooperative En Bioma …, priority 2013, dated 2016)

How the values were obtained:
Conditions in all cases: RNAse-B 50 μg/mL in PBS
ConA = ConA (Canavalia ensiformis, UniProt P02866)
Procedure: 0.4-0.3 mg/mL (glyco)protein solutions (Concanavalin A, ConA; WGA; and Galanthus nivalis agglutinin, GNA, lectins and RNAse B glycoprotein) were prepared in PBS, and 50 drops (˜0.3 nL per drop) were deposited onto the surface with a dot pitch of 750×750 μm. Slides were then incubated overnight at room temperature in 90% humidity, washed with PBS, quenched with ethanolamine and dried by purging Ar. Slides were stored at −20° C.
A lectin array of ConA, GNA and WGA was printed onto slides as described above, and Cy3-labelled or unlabelled RNAse-B (50 μg/mL in PBS) was added to wells. RNAse B binding and lectin modifications were analyzed by fluorescence imaging and MALDI-Tof MS (FIG. 12).

[1] = biological target: T1, GNA (Galanthus nivalis agglutinin) (Galanthus nivalis, UniProt P30617); assay: Lectin array, RNAse B binding by fluorescence scanning and MALDI-Tof MS
T1 sequence (P30617 20-128): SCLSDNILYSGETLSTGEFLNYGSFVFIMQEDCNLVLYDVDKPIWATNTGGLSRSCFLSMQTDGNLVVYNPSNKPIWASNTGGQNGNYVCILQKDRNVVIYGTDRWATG
Procedure: (§1) Slides were stored at −20° C.

[2] = tested on: WGA (Wheat Germ Agglutinin); assay: as above
Procedure: as §1

B1: RNAse B: RNAse B glycoprotein, glycoforms presenting mannose oligosaccharides M5-M9 (protein, UniProt P61823 27-150, looked up)
Ribonuclease pancreatic: KETAAAKFERQHMDSSTSAASSSNYCNQMMKSRNLTKDRCKPVNTFVHESLADVQAVCSQKNVACKNGQTNCYQSYSTMSITDCRETGSSKYPNCAYKTTQANKHIIVACEGNPYVPVHFDASV
modifications: glycoform B
B1 was tested, and the “binding to ConA” value (ConA) was “binding”, the “binding to GNA” value [1] was “binding” and the “interaction with WGA” value [2] was “no interaction”.
